# Legend:
# [1] = biological target: T1, GST-TEK (Arabidopsis thaliana) (UniProt Q9SJG4); assay: EMSA; details: EMSA according to manufacturer's instructions (Thermo Scientific); buffer, salt, pH and temperature not stated
# T1 sequence: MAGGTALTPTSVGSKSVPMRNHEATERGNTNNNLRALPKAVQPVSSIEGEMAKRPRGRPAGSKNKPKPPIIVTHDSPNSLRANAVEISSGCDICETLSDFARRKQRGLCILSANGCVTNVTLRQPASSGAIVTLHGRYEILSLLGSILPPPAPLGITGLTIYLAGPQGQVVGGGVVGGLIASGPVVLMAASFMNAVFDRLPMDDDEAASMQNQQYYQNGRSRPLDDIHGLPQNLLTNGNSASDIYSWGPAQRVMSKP
# [2] = biological target: T1, GST-TEK (Arabidopsis thaliana); assay: competition; details: EMSA according to manufacturer's instructions (Thermo Scientific); buffer, salt, pH and temperature not stated
Sequence,binding [1],binding [2]
GCCCATATATAGTATCTTCCGCTGTTGTATATCTTGAGCAGCTTGAGGAAGCCTTTGCAAAAAAATAGAGTGAATTTTGAGTACAGTATGAATATCATTCAACAACATTTTCCATCCAAGCGACTTAGAAAATAAAATTTTGTCAGCTACCTTAAACTGTGTTTACGTCCTAAAAATTTGCACCAA (double strand) [CalS5 P11 fragment],binds,–
GCCCATATATAGTATCTTCCGCTGTTGTATATCTTGAGCAGCTTGAGGAAGCCTTTGCAAAAAAATAGAGTGAATTTTGAGTACAGTATGAATATCATTCAACAACATTTTCCATCCAAGCGACTTAGAAAATAAAATTTTGTCAGCTACCTTAAACTGTGTTTACGTCCTAAAAATTTGCACCAA (double strand) [CalS5 P11 unlabeled competitor],–,binds

# From publication PMC7252695
